From paper PMC10953559
“And” between values parts separate entries of the source, which are not always exact repeats. Identical values can stand only once.

Target: GroEL14 as used with the substrate proteins NanA and DapA (E. coli) (UniProt P0A6F5)
Assay: native MS; CE-MS; 6 µM GroEL14 with 6 or 12 µM substrate monomers, denatured in 6.5 M GuHCl and 9 mM DTT and diluted 30-fold into GroEL14 buffer pH 7.5 (200 mM GuHCl, 0.3 mM DTT left); no ATP, no GroES; BGE 50 mM ammonium acetate pH 6.7

Sequence of N-acetyl neuraminic acid aldolase, denatured monomer (NanA) (P0A6L4 2-297): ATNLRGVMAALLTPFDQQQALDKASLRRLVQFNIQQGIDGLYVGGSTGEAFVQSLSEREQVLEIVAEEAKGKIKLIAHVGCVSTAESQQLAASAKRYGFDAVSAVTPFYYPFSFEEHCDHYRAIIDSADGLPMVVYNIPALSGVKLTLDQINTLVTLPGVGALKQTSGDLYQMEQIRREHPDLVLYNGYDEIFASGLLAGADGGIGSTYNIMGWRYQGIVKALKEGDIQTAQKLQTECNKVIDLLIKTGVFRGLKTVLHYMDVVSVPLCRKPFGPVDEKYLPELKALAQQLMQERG

share of the total signal intensity, GroEL14-NanA1 complex: 10% | share of the total signal intensity, GroEL14-NanA2 complex: 90% | stoichiometry N (NanA monomers per GroEL14): 1 and 2
Substance: N-acetyl neuraminic acid aldolase, denatured monomer (NanA) (from UniProt P0A6L4 2-297) (enzyme)
